# Laboratory results as given in the nanobody polyreactivity screen of Harvey et al. (2022).
# Test: yeast display, Sf9 membrane polyspecificity reagent, FACS + sequencing; frameworks hold sequencing errors
# How it was run: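 Nanobodies came from a synthetic yeast display library in Saccharomyces cerevisiae BJ5465, induced with galactose for 36–48 hours and stained for 1 hour at 4 °C with 10% biotinylated, detergent-solubilized Sf9 membrane reagent. Cells were enriched on streptavidin microbeads and then FACS-sorted, with low and high (top ~1%) gates set on anti-HA fluorescence for expression and streptavidin fluorescence for reagent binding. Each polyreactivity label reflects the gate a clone came from. Genes were amplified by colony PCR, sequenced by MiSeq 2 × 250 and filtered by CDR length.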
row,Sequence,polyreactivity (PSR sort gate)
1,QVQLVESGGGLVQAGGSLRLSCAASGFTFDFYAMGWYRQAPGKERELVAAISKNDGTTYYADSVKGRFTISRDNAKNTVYLQMNSLKPEDTAVYYCAAESGYAVYTYVSSGDYWGQGTQVTVSS,low polyreactivity
2,QVQLVESGGGLVQAGGSLRLSCAASGFTFDFYAMGWYRQAPGKERELVADISSSDGSTYADSVKGRFTISRDNAKNTVYLQMNSLKPEDTAVYYCAADYDNQYDFSLDDEYWGQGTQVTVSS,low polyreactivity
3,QVQLVESGGGLVQAGGSLRLSCAASGFTFDGNAMGWYRQAPGKERELVATITSGGNTKYADSVKGRFTISRDNAKNTVYFQMNSLKPEDTAVYYCAAAQYNYRRFNYWGQGTQVTVSS,low polyreactivity
4,QVQLVESGGGLVQAGGSLRLSCAASGFTFDINAMGWYRQAPGKERELVADITSGGTTDYADSVKGRFTISRDNAKNTVYLQMNSLKPEDTADYYCAAEVLDAYYGDDYWGQGTQVTVSS,high polyreactivity
5,QVQLVESGGGLVQAGGSLRLSCAASGFTFDIYGMGWYRQAPGKERELVASITSRSARTYYADSVKGRFTISRYNAKNTVYLQMNSLKPEDTAVYYCAADTTIKRKYLAIRGYWGQGTQVTVSS,high polyreactivity
6,QVQLVESGGGLVQAGGSLRLSCAASGFTFDKNVMGWYRQAPGKERELVAAISVRGGTTYYADSVKGRFTISRDNAMNTVYLQMNSLKPEDTAVYYCAARAYGPPARYDSWGQGTQVTVSS,low polyreactivity
7,QVQLVESGGGLVQAGGSLRLSCAASGFTFDKYAMGWYRQAPGKERELVAAISSSGGSTYYADSVKGRFTISRDNAKNTVYLQMNSLKPEDTAVYYCATGRIRWYARYDYWGHGTQVTVSS,high polyreactivity
8,QVQLVESGGGLVQAGGSLRLSCAASGFTFDQNAMGWYRQAPGKERELVAAISVGGGSTYYADSVKGRFTISRDNAKNTVYLQMNSLKPEDTAVYYCAASYVYPASFHYYYWGQGTQVTVSS,high polyreactivity
9,QVQLVESGGGLVQAGGSLRLSCAASGFTFDRNAMGWYRQAPGKERELVATISQSGTNTYYADSVKGRFTISRDNAKNTVYLQMNSLKPEDTAVYYCNARYIFYRYDYWGQGTQVTVSS,low polyreactivity
10,QVQLVESGGGLVQAGGSLRLSCAASGFTFDSYAMGWYRQAPGNDRELVAAISYRGGSTYYADSVKGRFSISRDNAKNTVYLQMNSLKPEDTAVFYCAARSPSAAYGSYGVYSWGQGTQVTVSS,high polyreactivity
11,QVQLVESGGGLVQAGGSLRLSCAASGFTFDTNAMGWYRPAPGKERELVAAISRIGGRTYADSVKGRFTISRDNAKNTVYLQMNSLKPEDTAVYYCAADTTWYPYGYDSWGQGTQVTVSS,low polyreactivity
12,QVQLVESGGGLVQAGGSLRLSCAASGFTFDWYAMGWYRQAPGKERELVAAISSSGRTNYADSVKGRFTISRDNAKNTVYLQMNSLKPEDTAVYYCNRDYPYIWHKGARYWHENDYWGQGTQVTVSS,low polyreactivity
13,QVQLVESGGGLVQAGGSLRLSCAASGFTFDYNAMGWSRQAPGKERELVAVISSSGSRTYYADSVKGRFTISRDNAKNTVYLQMNSLKPEDTAVYYCAAARIGTRDYWGQGTQVTVSS,high polyreactivity
14,QVQLVESGGGLVQAGGSLRLSCAASGFTFDYYAMGWYRQAPGKERELVAAISSSGGSTYYADSVKGRFTISRDNAKNTVYLQMNSLKPADTAVYYCGTGHSKKYDYWGQGTQVTVSS,high polyreactivity
15,QVQLVESGGGLVQAGGSLRLSCAASGFTFDYYAMGWYRQAPGKERELVATITSGGRTNYADSVKGRFTLSRDNAKNTVYLQMNSLNPEDTAVYYCAVDWWNVEYFYSATSGDYWGQGTQVTVSS,low polyreactivity
16,QVQLVESGGGLVQAGGSLRLSCAASGFTFEGYAMGWYRQAPGKERELVAAISYSGSSTYYADSVKGRFTISRDNAKNTVYLQMNSLKPEDTAVYYCNARRHWYSAWGYDYWGQGTQVTVSS,high polyreactivity
17,QVQLVESGGGLVQAGGSLRLSCAASGFTFEKNAMGWYGQAPGKERELVAAISRGGSTYADSVKGRFTISRDNAKTTVDLQMNSLKPEDTAVYYCAADTVYIFSSAINGEFGYWGQGTQVTVSS,low polyreactivity
18,QVQLVESGGGLVQAGGSLRLSCAASGFTFERYAMGWYRQAPGKERELVAAITGSGGSTYYADSVKGRFTISRDNAKTTVYLQMNSLKPEDTAVYYCADYSAYYGCDYWGQGTQVTVSS,low polyreactivity
19,QVQLVESGGGLVQAGGSLRLSCAASGFTFERYTMGWYRPAPGKERELVATISRRSGRTSYADSVKGRFTISRDNAKNTVYLQMNSLKPEDTAVYYCAVDDAYPDRYDYWGQGTQVTVSS,high polyreactivity
20,QVQLVESGGGLVQAGGSLRLSCAASGFTFERYTMGWYRQAPGKERELVATISRRSGRTSYADSVKGRFTISRDNAKNSVYLQMNSLKPEDTAVYYCAVDDAYPDRYDYWGQGTQVTVSS,high polyreactivity
21,QVQLVESGGGLVQAGGSLRLSCAASGFTFERYTMGWYRQAPGKERELVATISRRSGRTSYADSVKGRFTISRDNAKNTVYLQMNSLKPEDTAVYYCAVDDAYPDRYDYWGQGTQVTVSS,high polyreactivity
22,QVQLVESGGGLVQAGGSLRLSCAASGFTFESNAMGWYRQAPGKERELVAAITSSGGRTYYADSVKGRFTISRDNAKNTVYLQMNSLKPEDTAVYYCAATGKAPRESGGVYSMDWGQGTQVTVSS,low polyreactivity

row,Sequence,polyreactivity (PSR sort gate)
1,QVQLVESGGGLVQAGGSLRLSCAASGFTFEVYAMGWYIQAPGKERELVAAITSSGGRTYYADSVKGRFTISRDNAKNTVYLQMNSLKPEDTAVYYCNARSKQPVYPYVQSLNYWGQGTQVTVSS,high polyreactivity
2,QVQLVESGGGLVQAGGSLRLSCAASGFTFEYNALGWYRQAPGKERELVAAISSGGRTNYADSVKGRFTISRDNAKNTVYLQMNSLKPEDTAVYYCAKRLGVRPAFYYWGQGTLVTVSS,high polyreactivity
3,QVQLVESGGGLVQAGGSLRLSCAASGFTFEYNAMGWYRQAPGKERELVAVITYRGGSTYYADSVKGRFTISRDHAKNTVYLQMNSLKPEDTAVYYCAARLSSNYWGLKRWGYGYWGQGTQVTVSS,high polyreactivity
4,QVQLVESGGGLVQAGGSLRLSCAASGFTFEYYAMGWFRQAPGKERELVATITSGGSTYYADSVKGRFTISRDNAKNTVYLQMNSLKPEDTAVYDCNTSSPWIEDYWGQGTQVTVSS,low polyreactivity
5,QVQLVESGGGLVQAGGSLRLSCAASGFTFEYYAMGWYRQAPGKERELVAAIDTGGSTNYADSVKGRFTISRDNAKNTVYLQMNSLKPEDTAVYYCAADWSWWDGEDYHFEYDYWGQGTQVTVSS,low polyreactivity
6,QVQLVESGGGLVQAGGSLRLSCAASGFTFEYYPMGWYRQAPGKERELVADITTSSAGTYYADSVKGRFTISRDNAKNTFYLQMNSLKPEDTAVYYCNRDALNTGEDLDYWGQGTQVSVSS,low polyreactivity
7,QVQLVESGGGLVQAGGSLRLSCAASGFTFFHYAMGWYRQAPGKERELVAAINTRGSRTYYADSVKGRFTISRDNAKNTVYLQMNSLKPEDNAVYYCAAEDYWYDFDYWGQGTQVTVSS,high polyreactivity
8,QVQLVESGGGLVQAGGSLRLSCAASGFTFFIYVMGWYRQAPGKEREFVAAISSSGDSTYYADSVKGRFTISRDNAKNTVYLQMNSLKPEDTAVYYCAADRIRDLEFDYWGQGTQVTVSS,low polyreactivity
9,QVQLVESGGGLVQAGGSLRLSCAASGFTFFLYAMGWYRQAPGKEMELVAAIHSRGGSTYYADSVKGRFTISRDNAKNTVSLQMNSLKPEDTAVYYCAAYIPRSSWGYDYWGQGTQVTVSS,high polyreactivity
10,QVQLVESGGGLVQAGGSLRLSCAASGFTFFNYAMAWYRQAPGKERELVAAISSNGGRTYYADSVKGRFTISRDNAKNTVYLQMNSLKPEDTAVYYCATLYYGRVDYDYWGQGTQVTVSS,high polyreactivity
11,QVQLVESGGGLVQAGGSLRLSCAASGFTFFRYAMGWYRQAPGKERELVAAISWSGGRTYYADSVKGRFTISRDNAKNTVYLQMNSLKPEDTAVYYCAVDYYRSGLHYDSWGQGTQVTVSS,high polyreactivity
12,QVQLVESGGGLVQAGGSLRLSCAASGFTFFRYAMGWYRQAPGKERELVATITSGGTTNYADSVKGRFTISRDNAKNTVYLQMNSLKPEDTAVYYCAARTYPSYYVTFEYWGQGTQVTVSS,low polyreactivity
13,QVQLVESGGGLVQAGGSLRLSCAASGFTFFSNAMGWYRQAPGKDRELVAAITSSGGSTYADSVKGRFTISRDNAKNTVYLQMNSLKPEDTAVYYCAADAQAPPCGFKEYDYWGQGTQVTVSS,low polyreactivity
14,QVQLVESGGGLVQAGGSLRLSCAASGFTFFSYAMGWYRQAPGKERELVATITWSGGTYYADSVKGRFTISRDNAKNTVYVQMNSLKPEDTAVYYCNARRHYRRYSYRHNYWGQGTQVTVSS,high polyreactivity
15,QVQLVESGGGLVQAGGSLRLSCAASGFTFFTNAMGWYRQAPGKERELVATITSNGSTNYADSVKGRFTISRDNAKNTVYLQMISLKPEDTAVYYCAADQDSVSMDYWGQGTQVTVSS,low polyreactivity
16,QVQLVESGGGLVQAGGSLRLSCAASGFTFFTYAMGWYRQAPGKDRQLVAAITTGGSTNYADSVKGRFTISRDNAKINVYLEMNSLKPEDTAVYYCAAQRVSVLLFVRHDYWGQGTQVTVSS,low polyreactivity
17,QVQLVESGGGLVQAGGSLRLSCAASGFTFFVYAMGWYRQAPGKEREGVAVITSGGTTNYADSVKGRFTISRDNAKNTVYLQMNSLKPEDTAVYYCATDNGGIPKYVPYDYWGQGTQVTVSS,high polyreactivity
18,QVQLVESGGGLVQAGGSLRLSCAASGFTFFWYAMGWYRQAPGKERELVAGITYRGGSTYYADSVKGRFTISRDNAKNTVYLQMNSLKPEDTAVYYCNADVVTKHISAWWDRYYRRYYYWGQGTQVTVSS,low polyreactivity
19,QVQLVESGGGLVQAGGSLRLSCAASGFTFFYNAMGWYSQAPGKESELVASITVSTSGTDYADSVKGRFTISRDNAKNTVYLQMNSLKPEDTAVYYCATDLVFVYSDLQDTAYYWGQGTQVTVSS,low polyreactivity
20,QVQLVESGGGLVQAGGSLRLSCAASGFTFGANDMGRYIQAPGKERELVATISSSGGTTYYADSVKGRFTISRDNAKYTVYLQMNSLKPEDTAVYYCAAKGLFTGRVSRYADDHWGQGTEVTVSS,low polyreactivity
21,QVQLVESGGGLVQAGGSLRLSCAASGFTFGAYAMGWSRQAPGKERELVASISWSGGSTYYADSVKGRFTISRDNAKNTVYLQMNSLKPEDTAVYDCNKDFVYPDDDGLFDYWGQGTQVTVSS,low polyreactivity
